pKd: −log10 of the molar value.
Key:
Test in all cases: IEDB peptide-MHC binding, purified MHC/competitive/radioactivity; filed as Kd, often an IC50 or EC50 that approximates it; ≥ and ≤ were set here for values at or beyond the usual limits of such assays
[1] = molecular target: HLA-A*03:01
[2] = molecular target: HLA-A*31:01
[3] = molecular target: HLA-A*11:01
[4] = molecular target: HLA-A*68:01
[5] = molecular target: HLA-A*33:01
[6] = source organism: Vaccinia virus WR
[7] = source organism: SARS coronavirus Tor2
[8] = source organism: Mammarenavirus whitewaterense
[9] = source organism: Mammarenavirus lassaense
[10] = source organism: Lymphocytic choriomeningitis virus (strain Armstrong)

Sequence	pKd [1, 6]	pKd [2, 6]	pKd [3, 6]	pKd [4, 6]	pKd [5, 6]	also measured
FVSLVKKNKK	5.33	6.55	6.63	7.94	5.03	
GLFCLLNRY						pKd [1, 7]: 6.08; pKd [2, 7]: 5.15; pKd [3, 7]: 5.87; pKd [4, 7]: 4.79; pKd [5, 7]: 4.89
WFFNNYLRK						pKd [1, 7]: 6.39; pKd [2, 7]: 5.41; pKd [3, 7]: 7.09; pKd [4, 7]: 6.41; pKd [5, 7]: 6.05
AALDGTFQR	5.21	7.44	8.58	8.71	6.75	
SRIFEDLVWK						pKd [1, 8]: 6.06; pKd [2, 8]: 5.08; pKd [3, 8]: 6.21; pKd [4, 8]: 6.24; pKd [5, 8]: ≤ 4.23
IVHSYLKNY	≤ 4.67	≤ 4.59	5.91	≤ 4.62	≤ 4.11	
QIFNEDTSY	5.44	≤ 4.11	7.14	5.20	≤ 4.11	
TSVDIETAIR	5.53	6.04	6.24	8.87	5.84	
KIKTNDINVR	5.54	6.99	4.95	5.04	≤ 4.68	
GIFVDTMSIY	5.42	≤ 4.15	6.09	5.47	≤ 4.55	
HTCMSECVR	5.49	7.60	7.17	7.24	6.49	
ASKKDKLTVY	5.18	5.28	5.91	≤ 4.15	≤ 4.15	
YSKLTKDRK	≤ 4.11	5.36	5.31	7.28	≤ 4.62	
PVLKAMHDKK	5.07	≤ 4.15	≤ 4.61	≤ 4.15	≤ 4.15	
LSCTKNTSHH						pKd [1, 9]: ≤ 4.15; pKd [2, 9]: ≤ 4.37; pKd [3, 9]: ≤ 4.16; pKd [4, 9]: ≤ 4.36; pKd [5, 9]: ≤ 4.15
QSYKETVHK	7.66	5.26	7.36	7.42	≤ 4.11	
LVYFSTQQNK	9.01	5.28	8.81	8.39	≤ 4.35	
KTSKTTILSK	7.35	6.51	7.02	5.40	≤ 4.15	
LIKFISDNK	6.82	6.92	6.65	8.96	6.20	
TLYVKALTK	8.71	5.53	7.62	6.73	4.81	
VTLAILTALR						pKd [1, 7]: 6.66; pKd [2, 7]: 7.87; pKd [3, 7]: 6.83; pKd [4, 7]: 7.85; pKd [5, 7]: 6.51
SYQYLIIQNR						pKd [1, 10]: 5.01; pKd [2, 10]: 9.02; pKd [3, 10]: ≤ 4.16; pKd [4, 10]: 5.77; pKd [5, 10]: 7.27
PCMINDTHFL						pKd [1, 8]: ≤ 4.15; pKd [2, 8]: 4.94; pKd [3, 8]: ≤ 4.33; pKd [4, 8]: ≤ 4.40; pKd [5, 8]: ≤ 4.31
GIADIRDKY	≤ 4.11	≤ 4.11	5.05	5.63	≤ 4.11	
EFLHYCNSY	≤ 4.11	≤ 4.42	≤ 4.50	≤ 4.61	5.22	
IAEFVKENER	≤ 4.15	5.77	≤ 4.51	6.77	5.25	
ASMGFKVTTR	7.85	9.38	9.76	7.81	6.27	
PVYISQFSY	4.79	≤ 4.59	5.76	≤ 4.65	4.79	
TLISLNSMY	6.81	5.09	6.55	7.33	4.82	
SLENLDPDNK	5.53	4.77	8.16	5.87	≤ 4.65	

Reference: the Immune Epitope Database (IEDB)
